Assay results taken from article PMC6358110, “Role of SpaO in the assembly of the sorting platform of a Salmonella type III secretion system” (PLoS Pathogens, 2019).

Assays:
[1] = target: FLAG-tagged SpaO^L67pBpa (Salmonella enterica Typhimurium SL1344) (UniProt P40699); assay: cross-linking; site-specific in vivo photo-cross-linking: pBpa in SpaO, live S. Typhimurium in PBS irradiated at 365 nm; whole cell lysates on SDS-PAGE, anti-FLAG western blot, with and without UV
[2] = target: T1, SpaO^L, full length product of spaO, N-terminal His-tagged (S. Typhimurium, UniProt P40699 1-303); assay: SEC; N-terminal His-tagged SpaO made in E. coli, purified on Ni-NTA, run on Superose 6 10/300 GL; fractions analysed by SDS-PAGE and Coomassie; SpaO^L and SpaO^S made from one plasmid and co-purified; details: both partners purified
T1 construct: SpaO, full length product (SpaO^L) of the spaO gene, S. Typhimurium SPI-1 T3SS sorting platform component; The same plasmid gives both SpaO^L and the internally translated SpaO^S; also called His-tagged SpaO; source: E. coli Lemo21(DE3) harboring plasmid pSB3775, purified (Ni-NTA, Superose 6); not shown: His tag, N-terminal, kept
T1 sequence: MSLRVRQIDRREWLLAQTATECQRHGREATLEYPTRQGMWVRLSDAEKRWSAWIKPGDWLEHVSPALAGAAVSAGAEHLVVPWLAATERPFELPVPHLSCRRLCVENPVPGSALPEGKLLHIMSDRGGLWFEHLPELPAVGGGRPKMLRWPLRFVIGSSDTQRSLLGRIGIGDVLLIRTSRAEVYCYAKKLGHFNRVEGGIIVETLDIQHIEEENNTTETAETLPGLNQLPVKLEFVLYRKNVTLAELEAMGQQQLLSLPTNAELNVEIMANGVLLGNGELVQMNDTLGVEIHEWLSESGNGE

Molecule	stoichiometry N [1]	stoichiometry N [2]
FLAG-tagged SpaO^L67pBpa (from UniProt P40699 1-303) (natural protein)	4	–
SpaO^S, short form of SpaO composed of the C-terminal 101 amino acids (domain or fragment, SpaO^S, internally translated product of spaO starting at the internal GTG codon 203; the C-terminal 101 amino acids of SpaO, S. Typhimurium; Translated from an internal GTG start codon, so the first residue is probably Met rather than Val (surmised); source: E. coli Lemo21(DE3) harboring plasmid pSB3775, co-purified with His-tagged SpaO^L (Ni-NTA, Superose 6)) VETLDIQHIEEENNTTETAETLPGLNQLPVKLEFVLYRKNVTLAELEAMGQQQLLSLPTNAELNVEIMANGVLLGNGELVQMNDTLGVEIHEWLSESGNGE	–	2 SpaO^S per SpaO^L
